Source: the supplement of paper PMC10065799, “High-throughput profiling of sequence recognition by tyrosine kinases and SH2 domains using bacterial peptide display” (eLife, 2023)

What was measured:
Grb2 SH2 = Grb2 SH2 (UniProt P62993); experiment: SH2 binding enrichment of the phosphorylated peptide, bacterial display (enrichment ratio); higher = better substrate or ligand; peptides without Tyr show the background
c-Src SH2 = experiment: as above
SHP2-C SH2 = experiment: as above
EPHB2 = EPHB2 (UniProt P29323); experiment: phosphorylation enrichment, bacterial display (enrichment ratio); higher = better substrate or ligand; peptides without Tyr show the background
EPHB1 = EPHB1 (UniProt P54762); experiment: as above
FGFR3 = FGFR3 (UniProt P22607); experiment: as above
MERTK = MERTK (UniProt Q12866); experiment: as above
c-Src = experiment: as above
c-Abl (mouse) = experiment: as above
Hck = Hck (UniProt P08631); experiment: as above
Jak2 = Jak2 (UniProt O60674); experiment: as above
Fes = Fes (UniProt P07332); experiment: as above
Fyn = Fyn (UniProt P06241); experiment: as above
Fer (mouse) = experiment: as above
AncSZ = experiment: as above
FGFR1 = FGFR1 (UniProt P11362); experiment: as above
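Wherever SH2 binding enrichment of the phosphorylated peptide, bacterial display is given: peptide library displayed on the E. coli surface as eCPX fusions, selected cells deep-sequenced, score is each peptide's frequency after selection divided by its frequency in the input.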
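Wherever phosphorylation enrichment, bacterial display is given: 11-residue human phosphosite peptides and single-mutation variants displayed on the E. coli surface, counted by deep sequencing, each peptide's frequency after selection divided by its frequency in the unselected input library; frequency after pTyr selection over input frequency; kinase dosed for 20-30% of maximal phosphorylation in three min.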

Chain of Fes (P07332 whole entry, looked up): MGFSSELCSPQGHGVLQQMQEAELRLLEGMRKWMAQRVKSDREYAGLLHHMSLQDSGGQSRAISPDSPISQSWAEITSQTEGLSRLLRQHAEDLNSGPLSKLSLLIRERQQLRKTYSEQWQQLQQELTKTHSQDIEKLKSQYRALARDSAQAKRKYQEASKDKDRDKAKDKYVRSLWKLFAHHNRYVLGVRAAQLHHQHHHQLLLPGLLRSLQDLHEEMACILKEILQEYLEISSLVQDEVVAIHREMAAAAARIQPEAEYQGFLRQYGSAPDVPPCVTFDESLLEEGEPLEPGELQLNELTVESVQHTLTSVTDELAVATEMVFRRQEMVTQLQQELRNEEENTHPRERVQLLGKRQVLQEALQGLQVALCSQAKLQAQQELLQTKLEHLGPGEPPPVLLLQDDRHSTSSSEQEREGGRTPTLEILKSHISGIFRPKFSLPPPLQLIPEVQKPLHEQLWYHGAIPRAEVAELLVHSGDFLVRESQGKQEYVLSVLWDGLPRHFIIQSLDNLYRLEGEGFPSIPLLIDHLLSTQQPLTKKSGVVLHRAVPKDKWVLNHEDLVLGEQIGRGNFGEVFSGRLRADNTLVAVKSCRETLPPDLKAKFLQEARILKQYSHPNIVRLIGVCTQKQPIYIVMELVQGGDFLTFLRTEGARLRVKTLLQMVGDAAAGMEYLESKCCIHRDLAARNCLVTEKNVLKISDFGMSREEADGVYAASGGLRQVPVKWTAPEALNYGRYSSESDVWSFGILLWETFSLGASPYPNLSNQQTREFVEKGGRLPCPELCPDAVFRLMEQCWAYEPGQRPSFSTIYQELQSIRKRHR
Chain of Hck (P08631 whole entry, looked up): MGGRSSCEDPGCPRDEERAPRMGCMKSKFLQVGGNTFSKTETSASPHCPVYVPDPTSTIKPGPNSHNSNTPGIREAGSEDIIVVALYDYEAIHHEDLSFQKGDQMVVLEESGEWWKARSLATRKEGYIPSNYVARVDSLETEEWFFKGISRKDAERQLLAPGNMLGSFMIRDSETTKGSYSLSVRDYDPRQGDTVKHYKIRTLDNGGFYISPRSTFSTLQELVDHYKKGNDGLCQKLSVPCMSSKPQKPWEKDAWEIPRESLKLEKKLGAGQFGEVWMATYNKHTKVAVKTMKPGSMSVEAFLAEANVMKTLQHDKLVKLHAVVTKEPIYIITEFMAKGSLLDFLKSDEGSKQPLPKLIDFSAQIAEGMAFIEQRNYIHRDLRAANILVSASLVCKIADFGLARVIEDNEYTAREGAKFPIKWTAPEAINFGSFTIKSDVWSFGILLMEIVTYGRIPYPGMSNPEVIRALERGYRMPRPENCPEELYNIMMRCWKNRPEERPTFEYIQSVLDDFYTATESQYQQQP
Chain of EPHB1 (P54762 whole entry, looked up): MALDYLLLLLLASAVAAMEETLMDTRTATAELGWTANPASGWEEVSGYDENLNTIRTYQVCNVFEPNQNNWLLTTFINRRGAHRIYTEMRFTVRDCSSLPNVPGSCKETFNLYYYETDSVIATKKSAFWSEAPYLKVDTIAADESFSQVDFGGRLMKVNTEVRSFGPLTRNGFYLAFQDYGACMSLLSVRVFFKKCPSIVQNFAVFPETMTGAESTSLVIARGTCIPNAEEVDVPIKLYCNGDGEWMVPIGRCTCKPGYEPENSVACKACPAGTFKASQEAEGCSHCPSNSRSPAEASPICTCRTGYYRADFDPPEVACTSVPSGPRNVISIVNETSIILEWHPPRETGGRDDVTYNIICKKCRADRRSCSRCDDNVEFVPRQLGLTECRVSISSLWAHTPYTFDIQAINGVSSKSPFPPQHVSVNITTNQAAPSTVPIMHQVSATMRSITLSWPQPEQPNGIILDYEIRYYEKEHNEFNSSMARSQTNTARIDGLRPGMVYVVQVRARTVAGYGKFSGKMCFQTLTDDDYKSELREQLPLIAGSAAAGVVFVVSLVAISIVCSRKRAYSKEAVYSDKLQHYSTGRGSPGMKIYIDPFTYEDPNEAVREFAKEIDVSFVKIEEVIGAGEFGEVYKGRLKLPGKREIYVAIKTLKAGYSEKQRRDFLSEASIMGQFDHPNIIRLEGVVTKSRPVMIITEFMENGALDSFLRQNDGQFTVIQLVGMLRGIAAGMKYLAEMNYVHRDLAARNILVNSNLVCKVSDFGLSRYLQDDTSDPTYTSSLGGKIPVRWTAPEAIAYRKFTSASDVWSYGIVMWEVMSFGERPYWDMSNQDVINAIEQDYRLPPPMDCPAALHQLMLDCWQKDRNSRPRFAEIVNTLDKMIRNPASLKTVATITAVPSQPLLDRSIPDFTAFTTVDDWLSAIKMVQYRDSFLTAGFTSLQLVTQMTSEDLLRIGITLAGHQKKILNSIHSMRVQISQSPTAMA
Chain of FGFR3 (P22607 whole entry, looked up): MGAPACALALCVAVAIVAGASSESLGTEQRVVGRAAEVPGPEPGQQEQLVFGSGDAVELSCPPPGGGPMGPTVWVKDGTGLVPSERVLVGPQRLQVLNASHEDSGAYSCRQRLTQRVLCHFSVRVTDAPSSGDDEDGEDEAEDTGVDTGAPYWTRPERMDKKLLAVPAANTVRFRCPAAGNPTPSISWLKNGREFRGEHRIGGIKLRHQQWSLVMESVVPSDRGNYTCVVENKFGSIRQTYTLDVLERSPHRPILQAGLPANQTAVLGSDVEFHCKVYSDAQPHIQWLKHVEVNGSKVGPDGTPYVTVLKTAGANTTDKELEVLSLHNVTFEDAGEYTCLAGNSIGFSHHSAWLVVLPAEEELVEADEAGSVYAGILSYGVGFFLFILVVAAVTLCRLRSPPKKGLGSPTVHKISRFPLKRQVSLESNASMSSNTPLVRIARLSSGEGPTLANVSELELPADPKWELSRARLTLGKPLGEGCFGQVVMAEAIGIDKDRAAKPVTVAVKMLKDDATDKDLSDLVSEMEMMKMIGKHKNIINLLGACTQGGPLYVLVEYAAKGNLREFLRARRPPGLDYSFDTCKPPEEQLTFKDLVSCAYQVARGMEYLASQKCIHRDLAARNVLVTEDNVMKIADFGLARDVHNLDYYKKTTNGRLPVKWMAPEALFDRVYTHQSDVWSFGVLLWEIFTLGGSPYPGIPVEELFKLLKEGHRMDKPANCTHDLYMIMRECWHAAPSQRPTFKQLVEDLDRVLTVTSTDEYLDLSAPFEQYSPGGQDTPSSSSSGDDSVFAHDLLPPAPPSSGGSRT
Chain of Jak2 (O60674 whole entry, looked up): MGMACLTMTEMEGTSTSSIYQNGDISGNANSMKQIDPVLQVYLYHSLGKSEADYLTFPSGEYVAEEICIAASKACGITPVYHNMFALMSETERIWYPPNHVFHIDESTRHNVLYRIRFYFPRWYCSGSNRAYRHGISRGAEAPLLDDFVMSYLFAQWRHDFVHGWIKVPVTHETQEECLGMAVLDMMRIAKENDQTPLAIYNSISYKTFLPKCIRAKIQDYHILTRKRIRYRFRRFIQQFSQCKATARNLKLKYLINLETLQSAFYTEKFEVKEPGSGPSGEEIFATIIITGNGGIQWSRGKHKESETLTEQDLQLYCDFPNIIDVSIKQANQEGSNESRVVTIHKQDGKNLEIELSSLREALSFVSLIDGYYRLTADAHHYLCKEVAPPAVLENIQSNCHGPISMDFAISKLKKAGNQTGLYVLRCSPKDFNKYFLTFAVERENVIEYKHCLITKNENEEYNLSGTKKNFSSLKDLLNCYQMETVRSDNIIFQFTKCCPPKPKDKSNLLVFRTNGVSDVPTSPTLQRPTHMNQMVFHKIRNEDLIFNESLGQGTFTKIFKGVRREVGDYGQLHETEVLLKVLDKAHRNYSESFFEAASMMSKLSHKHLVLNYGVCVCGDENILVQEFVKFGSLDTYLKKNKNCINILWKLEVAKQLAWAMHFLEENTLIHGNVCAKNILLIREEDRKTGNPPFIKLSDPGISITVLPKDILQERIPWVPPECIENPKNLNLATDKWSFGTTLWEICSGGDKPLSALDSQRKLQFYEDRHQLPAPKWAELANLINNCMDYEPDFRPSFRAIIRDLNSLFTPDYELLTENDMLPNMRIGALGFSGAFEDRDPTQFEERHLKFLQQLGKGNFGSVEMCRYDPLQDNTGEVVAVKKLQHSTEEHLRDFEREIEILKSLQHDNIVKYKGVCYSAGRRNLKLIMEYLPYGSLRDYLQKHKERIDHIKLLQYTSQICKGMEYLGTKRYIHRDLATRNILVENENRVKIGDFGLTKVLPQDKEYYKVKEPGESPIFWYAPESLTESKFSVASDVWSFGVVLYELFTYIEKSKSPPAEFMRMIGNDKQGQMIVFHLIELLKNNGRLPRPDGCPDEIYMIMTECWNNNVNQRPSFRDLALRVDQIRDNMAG
Chain of Grb2 SH2 (P62993 whole entry, looked up): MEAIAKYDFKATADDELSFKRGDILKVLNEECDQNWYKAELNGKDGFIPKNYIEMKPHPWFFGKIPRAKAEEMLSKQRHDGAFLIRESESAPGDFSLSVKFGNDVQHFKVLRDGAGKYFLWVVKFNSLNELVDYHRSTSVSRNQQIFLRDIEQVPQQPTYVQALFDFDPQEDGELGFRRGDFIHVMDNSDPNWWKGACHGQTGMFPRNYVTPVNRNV
Chain of Fyn (P06241 whole entry, looked up): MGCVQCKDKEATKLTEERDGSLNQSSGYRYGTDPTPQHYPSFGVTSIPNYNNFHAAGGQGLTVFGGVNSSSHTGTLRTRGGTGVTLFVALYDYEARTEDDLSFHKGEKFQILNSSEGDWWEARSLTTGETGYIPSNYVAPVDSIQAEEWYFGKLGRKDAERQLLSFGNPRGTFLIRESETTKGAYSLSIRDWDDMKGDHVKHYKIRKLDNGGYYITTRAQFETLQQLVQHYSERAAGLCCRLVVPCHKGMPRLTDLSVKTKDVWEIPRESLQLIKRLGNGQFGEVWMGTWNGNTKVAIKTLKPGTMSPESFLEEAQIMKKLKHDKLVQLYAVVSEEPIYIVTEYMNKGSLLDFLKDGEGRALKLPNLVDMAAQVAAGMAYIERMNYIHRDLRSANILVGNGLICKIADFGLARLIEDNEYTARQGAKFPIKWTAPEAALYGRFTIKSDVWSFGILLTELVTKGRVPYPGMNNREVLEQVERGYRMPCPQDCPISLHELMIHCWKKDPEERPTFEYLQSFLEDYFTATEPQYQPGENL

Row | Sequence | SH2 binding enrichment (Grb2 SH2) | SH2 binding enrichment (c-Src SH2) | SH2 binding enrichment (SHP2-C SH2) | phosphorylation enrichment (EPHB2) | phosphorylation enrichment (EPHB1) | phosphorylation enrichment (FGFR3) | phosphorylation enrichment (MERTK) | phosphorylation enrichment (c-Src) | phosphorylation enrichment (c-Abl (mouse)) | phosphorylation enrichment (Hck) | phosphorylation enrichment (Jak2) | phosphorylation enrichment (Fes) | phosphorylation enrichment (Fyn) | phosphorylation enrichment (Fer (mouse)) | phosphorylation enrichment (AncSZ) | phosphorylation enrichment (FGFR1)
1 | EEGNPYFSSAR [MCCC2_Y520_YF] | 0.769 | 0.51 | 0.627 | 0.623 | 0.446 | 0.648 | 0.462 | 1.15 | 0.796 | 0.638 | 0.818 | 0.966 | 0.61 | 0.43 | 1.01 | 0.461
2 | EELLRYAIVTP [POC5_Y37_H36R] | 0.871 | 9.68 | 14 | 0.637 | 0.669 | 0.615 | 3.32 | 0.444 | 0.62 | 0.439 | 0.867 | 0.922 | 0.456 | 0.6 | 0.928 | 0.514
3 | EERKTYVNTTL [TEK_Y1102] | 8.42 | 0.516 | 0.571 | 0.519 | 0.526 | 0.586 | 0.498 | 0.446 | 0.779 | 0.48 | 0.983 | 0.977 | 0.45 | 0.551 | 0.83 | 0.464
4 | EEVKAYLDFGE [CHAC2_Y78_R82G] | 0.73 | 0.383 | 0.59 | 0.535 | 0.719 | 0.942 | 0.422 | 0.574 | 0.944 | 0.564 | 1.62 | 1.32 | 0.448 | 0.558 | 1.3 | 0.473
5 | EFFDGYWEFSV [ITGA2B_Y265_G267E_YF] | 0.674 | 0.494 | 0.515 | 0.577 | 0.709 | 6.69 | 0.631 | 5.58 | 1.19 | 2.29 | 3.11 | 1.55 | 3.4 | 0.515 | 1.98 | 8.09
6 | EFGEVYKGMLK [EPHA2_Y628] | 1.11 | 0.553 | 0.838 | 0.441 | 0.343 | 0.526 | 0.367 | 0.481 | 0.377 | 0.454 | 0.394 | 0.579 | 0.422 | 0.411 | 0.503 | 0.439
7 | EFISECCGEII [EZH2_Y641_Y641C] | 0.954 | 0.501 | 0.739 | 0.695 | 0.672 | 0.724 | 0.503 | 0.472 | 1.24 | 0.55 | 1.07 | 1.18 | 0.498 | 0.508 | 1.27 | 0.723
8 | EFNINYNNELP [THG1L_Y228] | 0.774 | 0.55 | 0.839 | 0.516 | 0.383 | 0.568 | 0.341 | 0.354 | 0.444 | 0.429 | 1.07 | 0.829 | 0.468 | 0.38 | 0.734 | 0.488
9 | EFQLPYFNTVP [BMPR1A_Y457_M460T_YF] | 1.27 | 0.667 | 0.741 | 0.549 | 0.523 | 0.541 | 0.454 | 1.26 | 0.615 | 0.523 | 1.08 | 0.935 | 0.454 | 0.423 | 0.879 | 0.682
10 | EFTPLYPMLFG [SCLY_Y280] | 0.993 | 0.504 | 4.07 | 0.695 | 0.59 | 9.26 | 2.6 | 0.475 | 0.849 | 0.515 | 1.64 | 1.12 | 0.547 | 0.458 | 1.01 | 12.8
11 | EGGFAYVPLKD [PRIM2_Y208_D204G] | 0.637 | 0.468 | 0.436 | 0.567 | 0.466 | 0.497 | 0.371 | 0.419 | 0.699 | 0.404 | 1.12 | 1.05 | 0.369 | 0.379 | 1.19 | 0.399
12 | EGTGHYLCNAC [GATA5_Y208_D203E] | 1.09 | 0.445 | 0.81 | 0.375 | 0.354 | 0.566 | 0.54 | 0.395 | 0.525 | 0.352 | 0.505 | 0.57 | 0.411 | 0.378 | 0.524 | 0.462
13 | EHTILYSNNST [KANSL1_Y223_T221I] | 0.845 | 0.691 | 0.71 | 0.454 | 0.456 | 0.468 | 0.5 | 0.547 | 0.581 | 0.43 | 0.488 | 0.662 | 0.437 | 0.732 | 0.715 | 0.461
14 | EKAEVYRSENE [RIOK2_Y348_G349R] | 0.94 | 0.502 | 0.653 | 0.738 | 0.51 | 0.724 | 0.44 | 0.509 | 0.77 | 0.499 | 0.863 | 1.08 | 0.448 | 0.466 | 1.09 | 0.507
15 | EKIANYKEGTF [CLRN1_Y171_YF] | 0.91 | 0.443 | 0.554 | 0.474 | 0.53 | 0.537 | 0.498 | 0.5 | 0.543 | 0.4 | 0.724 | 0.823 | 0.465 | 0.408 | 0.967 | 0.461
16 | EKLIQYCQSKG [AKR1B1_Y199] | 0.854 | 0.572 | 0.466 | 0.563 | 0.487 | 0.493 | 0.423 | 0.479 | 0.462 | 0.446 | 0.573 | 0.644 | 0.448 | 0.425 | 0.52 | 0.44
